Assay results published in the MegaScale stability set (Tsuboyama et al. 2023).

B1: EEHEE_rd3_1049 (parent)
chain: TTVKLGDIKVTFDNPEKAKKYAQKLAKIYQLTVHVHGDTIHVK

Variants of: B1
Assay: folding stability dG (cDNA display proteolysis); higher = more stable
Details: PBS, room temperature

Variant | folding stability dG [kcal/mol]
Q23S | 1.58
Q23C | 3.24
Q23W | 2.06
Q23V | 1.73
Q23D | 1.91
Q23Y | 2.29
Q23I | 2.03
Q23F | 2.14
Q23M | 2.25
Q23R | 1.94
Q23N | 1.88
Q23T | 1.64
Q23G | 1.06
Q23P | -0.329
Q23E | 2.19
Q23K | 1.87
Q23A | 2.1
Q23H | 1.9
Q23L | 2.22
K20A | 2.27
K20V | 1.78
K20G | 1.13
K20W | 2.18
K20Y | 1.92

Variant | folding stability dG [kcal/mol]
K20T | 1.57
K20D | 1.55
K20P | -0.125
K20R | 2.21
K20F | 1.8
K20N | 1.66
K20I | 1.97
K20C | 2.63
K20E | 2.06
K20S | 1.71
K20Q | 2.02
K20M | 2.04
K20L | 2.08
K20H | 1.67
K19T | 1.55
K19M | 3.54
K19Q | 1.89
K19W | 3.16
K19Y | 2.9
K19E | 1.47
K19F | 2.93
K19L | 3.31
K19N | 1.64
K19D | 0.873

Variant | folding stability dG [kcal/mol]
K19A | 1.9
K19I | 2.54
K19S | 1.49
K19G | 0.985
K19H | 2.14
K19V | 1.97
K19C | 3.38
K19P | -0.502
K19R | 2.23
E16Q | 1.89
E16S | 1.7
E16N | 1.7
E16P | 0.35
E16C | 2.66
E16R | 1.82
E16I | 1.98
E16T | 1.77
E16L | 1.92
E16K | 1.91
E16D | 1.96
E16F | 1.9
E16G | 1.54
E16A | 1.94
E16W | 1.93

Variant | folding stability dG [kcal/mol]
E16V | 1.85
E16H | 1.8
E16Y | 1.9
E16M | 1.91
K24A | 1.98
Y21E | -0.031
Y21H | 0.523
Y21Q | -0.123
Y21M | 0.885
Y21F | 2.36
Y21C | 2.04
Y21G | -0.676
Y21T | 0.282
Y21W | 2.22
Y21L | 1.15
Y21I | 0.827
Y21D | -0.407
Y21P | -0.648
Y21K | -0.234
Y21R | 0.268
Y21S | -0.364
Y21A | 0.651
Y21N | -0.383
Y21V | 0.867

Variant | folding stability dG [kcal/mol]
K17N | 1.91
K17A | 2.39
K17G | 1.25
K17F | 1.84
K17R | 2.02
K17Y | 1.9
K17D | 2.45
K17W | 1.93
K17M | 2.2
K17Q | 2.21
K17I | 2
K17C | 3.1
K17H | 2.02
K17L | 2.17
K17T | 2.15
K17P | 0.853
K17S | 2.05
K17V | 2
K17E | 2.32
A18G | 0.641
A18R | 0.343
A18I | 0.682
A18K | 0.046
A18E | -0.325

Variant | folding stability dG [kcal/mol]
A18Q | 0.175
A18T | 0.288
A18S | 0.232
A18F | 0.877
A18D | -0.113
A18V | 0.492
A18P | -0.013
A18W | 1.26
A18L | 0.902
A18M | 0.64
A18N | 0.152
A18H | 0.152
A18Y | 0.624
A18C | 2.03
A22G | 0.327
A22F | 1.08
A22S | 0.584
A22Q | 0.388
A22N | 0.115
A22R | 0.612
A22I | 1.48
A22P | -0.681
A22T | 0.394
A22L | 1.47

Variant | folding stability dG [kcal/mol]
A22H | 0.262
A22K | 0.531
A22D | -0.543
A22E | -0.139
A22V | 1.34
A22W | 1.24
A22Y | 0.937
A22M | 1.07
P15W | 2.47
P15L | 2.08
P15F | 3.11
P15H | 2.04
P15Q | 1.65
P15Y | 2.53
P15N | 1.43
P15K | 1.78
P15T | 1.4
P15G | 1.3
P15S | 1.59
P15M | 2.1
P15R | 1.88
P15V | 1.96
P15I | 2.01
